From FireProtDB (doi:10.1021/bi002792f)

B1: Lysozyme C, P61626 (parent)
chain: MKALIVLGLVLLSVTVQGKVFERCELARTLKRLGMDGYRGISLANWMCLAKWESGYNTRATNYNAGDRSTDYGIFQINSRYWCNDGKTPGAVNACHLSCSALLQDNIADAVACAKRVVRDPQGIRAWVAWRNRCQNRDVRQYVQGCGV

Variants of: B1
Details: Homo sapiens, pH 2.7, Thermal, DSC, Gly-HCl 0.05 M, reversible: yes, structure 1LZ1, whole UniProt chain shown

Row | Variant | ddG of mutation (higher = less stable) (64.9 °C) [kcal/mol] | heat capacity change of unfolding (64.9 °C) [kcal/mol/K] | unfolding enthalpy (calorimetric) (64.9 °C) [kcal/mol] | Tm [°C] | change of melting temperature, mutant - wild type (higher = more stable) [°C] | heat capacity change of unfolding [kcal/mol/K]
1 | L26T | 3.73 | 1.39 | 107 | 52.5 | -12.4 | 1.39
2 | A50S | 0.33 | 1.65 | 111 | 63.9 | -1 | 1.65
3 | V111T | 0.67 | 1.12 | 101 | 62.6 | -2.3 | 1.12
4 | A114S | 1 | 1.29 | 103 | 61.6 | -3.3 | 1.29
5 | A27S |  | 1.27 | 106 | 64.8 | -0.1 | 1.27
6 | A110S |  | 2.01 | 104 | 67.5 | 2.6 | 2.01
7 | V117T |  | 1.41 | 104 | 63.3 | -1.6 | 1.41
8 | V118T |  | 1.53 | 107 |  |  | 
